The target of this assay is Kss1-7m3-GBD (Kss1-7m3 fused to the Gal4 DNA-binding domain) (S. cerevisiae) (UniProt P14681). The assay is described as follows: two-hybrid.
Chain of Kss1-7m3-GBD (Kss1-7m3 fused to the Gal4 DNA-binding domain) (S. cerevisiae) (P14681 whole entry, the tested form may be a part): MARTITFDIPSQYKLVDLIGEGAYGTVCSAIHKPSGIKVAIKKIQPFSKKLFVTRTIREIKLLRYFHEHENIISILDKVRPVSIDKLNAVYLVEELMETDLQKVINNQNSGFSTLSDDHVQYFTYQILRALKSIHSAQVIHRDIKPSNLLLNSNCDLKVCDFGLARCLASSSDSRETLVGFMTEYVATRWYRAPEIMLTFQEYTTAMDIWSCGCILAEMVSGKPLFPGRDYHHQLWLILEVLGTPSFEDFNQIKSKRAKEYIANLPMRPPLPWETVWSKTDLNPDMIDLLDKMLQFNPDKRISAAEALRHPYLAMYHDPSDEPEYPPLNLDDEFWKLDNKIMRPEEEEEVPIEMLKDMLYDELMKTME

B1: Ste12-GAD (Ste12 fused to the Gal4 transcriptional activation domain) (natural protein)
chain: MKVQITNSRTEEILKVQANNENDEVSKATPGEVEESLRLIGDLKFFLATAPVNWQENQIIRRYYLNSGQGFVSCVFWNNLYYITGTDIVKCCLYRMQKFGREVVQKKKFEEGIFSDLRNLKCGIDATLEQPKSEFLSFLFRNMCLKTQKKQKVFFWFSVAHDKLFADALERDLKRESLNQPSTTKPVNEPALSFSYDSSSDKPLYDQLLQHLDSRRPSSTTKSDNSPPKLESENFKDNELVTVTNQPLLGVGLMDDDAPESPSQINDFIPQKLIIEPNTLELNGLTEETPHDLPKNTAKGRDEEDFPLDYFPVSVEYPTEENAFDPFPPQAFTPAAPSMPISYDNVNERDSMPVNSLLNRYPYQLSVAPTFPVPPSSSRQHFMTNRDFYSSNNNKEKLVSPSDPTSYMKYDEPVMDFDESRPNENCTNAKSHNSGQQTKQHQLYSNNFQQSYPNGMVPGYYPKMPYNPMGGDPLLDQAFYGADDFFFPPEGCDNNMLYPQTATSWNVLPPQAMQPAPTYVGRPYTPNYRSTPGSAMFPYMQSSNSMQWNTAVSPYSSRAPSTTAKNYPPSTFYSQNINQYPRRRTVGMKSSQGNVPTGNKQSVGKSAKISKPLHIKTSAYQKQYKINLETKARPSAGDEDSAHPDKNKEISMPTPDSNTLVVQSEEGGAHSLEVDTNRRSDKNLPDAT
With B1, the fold above background (two-hybrid reporter) was 6 fold.
